Experimental data taken from US8815527 (Stanford University, dated 2014).

Columns and labels:
[1] = target: AKT phosphorylated at Ser473; test: flow cytometry, Jurkat T cells +PDGF, AKT+ gated; number stands under the right-hand population (ser473 stain about 50, thr308 stain about 50); one dotted box encloses both populations
[2] = target: p38 MAPK phosphorylated at Thr180/Tyr182; test: flow cytometry, Jurkat T cells +Anisomycin; gate around the population with phospho-p38 stain about 15 to 100
[3] = target: T1, Leukocyte Function Antigen-1 (LFA-1) on the cell surface (human, UniProt P20701 26-1170; P05107 23-769); test: flow cytometry, ICAM-2-FITC titration on Jurkat cells, single cell analysis
T1 construct: whole, on cells; also called CD11a/CD18; αLβ2
T1 sequence (P20701 26-1170, chain 1 of 2): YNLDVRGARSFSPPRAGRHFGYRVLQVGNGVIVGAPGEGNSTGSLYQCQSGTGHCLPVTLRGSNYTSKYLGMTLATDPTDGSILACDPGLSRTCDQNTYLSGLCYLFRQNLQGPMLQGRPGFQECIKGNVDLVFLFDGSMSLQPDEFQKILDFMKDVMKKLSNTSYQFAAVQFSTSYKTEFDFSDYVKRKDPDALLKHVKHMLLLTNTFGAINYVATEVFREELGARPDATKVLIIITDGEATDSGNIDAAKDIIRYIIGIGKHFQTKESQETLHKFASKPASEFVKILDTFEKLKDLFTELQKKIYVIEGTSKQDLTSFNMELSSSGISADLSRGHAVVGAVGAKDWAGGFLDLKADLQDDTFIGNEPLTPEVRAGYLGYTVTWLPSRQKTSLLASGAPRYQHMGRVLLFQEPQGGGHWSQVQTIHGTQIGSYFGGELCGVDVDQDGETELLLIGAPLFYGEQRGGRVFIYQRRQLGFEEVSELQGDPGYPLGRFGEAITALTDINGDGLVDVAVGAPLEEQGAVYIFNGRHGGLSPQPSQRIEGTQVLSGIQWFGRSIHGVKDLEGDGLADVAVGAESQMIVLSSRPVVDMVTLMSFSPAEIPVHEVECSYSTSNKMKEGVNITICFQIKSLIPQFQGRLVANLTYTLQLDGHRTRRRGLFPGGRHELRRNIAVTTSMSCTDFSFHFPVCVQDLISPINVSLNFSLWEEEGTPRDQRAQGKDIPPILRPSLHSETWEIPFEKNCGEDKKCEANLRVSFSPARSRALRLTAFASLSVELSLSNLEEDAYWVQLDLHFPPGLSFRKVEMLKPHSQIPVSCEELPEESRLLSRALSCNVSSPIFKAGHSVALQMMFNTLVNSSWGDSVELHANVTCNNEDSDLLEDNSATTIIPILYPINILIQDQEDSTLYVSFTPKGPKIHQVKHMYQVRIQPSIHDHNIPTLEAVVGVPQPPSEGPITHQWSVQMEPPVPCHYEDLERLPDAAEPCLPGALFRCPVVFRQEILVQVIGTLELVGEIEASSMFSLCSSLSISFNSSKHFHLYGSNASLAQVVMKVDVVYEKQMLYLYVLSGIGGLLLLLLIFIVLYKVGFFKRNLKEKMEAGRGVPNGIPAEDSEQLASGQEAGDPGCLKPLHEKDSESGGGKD
T1 sequence (P05107 23-769, chain 2 of 2): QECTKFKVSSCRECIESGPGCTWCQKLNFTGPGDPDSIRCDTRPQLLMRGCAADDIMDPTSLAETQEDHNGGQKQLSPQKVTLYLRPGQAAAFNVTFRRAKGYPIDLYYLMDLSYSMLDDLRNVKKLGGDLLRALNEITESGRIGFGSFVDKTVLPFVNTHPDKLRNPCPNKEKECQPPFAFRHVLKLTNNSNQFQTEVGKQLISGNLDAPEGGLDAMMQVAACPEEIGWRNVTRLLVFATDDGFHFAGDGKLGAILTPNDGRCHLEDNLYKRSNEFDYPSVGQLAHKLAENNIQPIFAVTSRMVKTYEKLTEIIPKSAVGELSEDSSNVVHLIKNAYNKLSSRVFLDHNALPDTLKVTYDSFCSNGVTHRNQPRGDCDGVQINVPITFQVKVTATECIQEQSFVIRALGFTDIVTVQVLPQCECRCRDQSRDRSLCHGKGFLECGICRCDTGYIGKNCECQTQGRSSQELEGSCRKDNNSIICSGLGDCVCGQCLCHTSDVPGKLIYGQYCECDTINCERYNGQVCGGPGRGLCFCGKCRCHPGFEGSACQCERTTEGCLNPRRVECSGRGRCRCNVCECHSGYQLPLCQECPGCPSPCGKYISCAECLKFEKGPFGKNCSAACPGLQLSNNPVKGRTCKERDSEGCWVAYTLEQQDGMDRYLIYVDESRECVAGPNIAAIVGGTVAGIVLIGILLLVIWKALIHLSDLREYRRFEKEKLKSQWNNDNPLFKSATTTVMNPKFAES
Protocol: Molecular weight was calculated using relative distance migration from a molecular weight standard. Concentration was determined using serial dilutions of BSA as a standard. […] Mean fluorescence intensity was plotted per time of a gated homogenous cell population. Flow rate was maintained at 200-300 cells/second, with fluorescence intensity values acquired at 10 millisecond intervals for 1200 seconds. […] Cells were washed 1×, and analyzed for mean fluorescent intensity (MFI) of 10^4 cells. […] Values were fit to the equation Y=m1*M0/(m2+M0) (see materials and methods).

[4] = target: T1, Leukocyte Function Antigen-1 (LFA-1) on …; test: cell-based or functional assay
[5] = target: β4 integrin (NIH3T3-derived cells) (UniProt A2A863 29-1818, limits assumed); test: two-column affinity chromatography (ICAM-2 solid support, then streptavidin-agarose) and immunoblot
Sequence of β4 integrin (NIH3T3-derived cells) (A2A863 29-1818 limits assumed): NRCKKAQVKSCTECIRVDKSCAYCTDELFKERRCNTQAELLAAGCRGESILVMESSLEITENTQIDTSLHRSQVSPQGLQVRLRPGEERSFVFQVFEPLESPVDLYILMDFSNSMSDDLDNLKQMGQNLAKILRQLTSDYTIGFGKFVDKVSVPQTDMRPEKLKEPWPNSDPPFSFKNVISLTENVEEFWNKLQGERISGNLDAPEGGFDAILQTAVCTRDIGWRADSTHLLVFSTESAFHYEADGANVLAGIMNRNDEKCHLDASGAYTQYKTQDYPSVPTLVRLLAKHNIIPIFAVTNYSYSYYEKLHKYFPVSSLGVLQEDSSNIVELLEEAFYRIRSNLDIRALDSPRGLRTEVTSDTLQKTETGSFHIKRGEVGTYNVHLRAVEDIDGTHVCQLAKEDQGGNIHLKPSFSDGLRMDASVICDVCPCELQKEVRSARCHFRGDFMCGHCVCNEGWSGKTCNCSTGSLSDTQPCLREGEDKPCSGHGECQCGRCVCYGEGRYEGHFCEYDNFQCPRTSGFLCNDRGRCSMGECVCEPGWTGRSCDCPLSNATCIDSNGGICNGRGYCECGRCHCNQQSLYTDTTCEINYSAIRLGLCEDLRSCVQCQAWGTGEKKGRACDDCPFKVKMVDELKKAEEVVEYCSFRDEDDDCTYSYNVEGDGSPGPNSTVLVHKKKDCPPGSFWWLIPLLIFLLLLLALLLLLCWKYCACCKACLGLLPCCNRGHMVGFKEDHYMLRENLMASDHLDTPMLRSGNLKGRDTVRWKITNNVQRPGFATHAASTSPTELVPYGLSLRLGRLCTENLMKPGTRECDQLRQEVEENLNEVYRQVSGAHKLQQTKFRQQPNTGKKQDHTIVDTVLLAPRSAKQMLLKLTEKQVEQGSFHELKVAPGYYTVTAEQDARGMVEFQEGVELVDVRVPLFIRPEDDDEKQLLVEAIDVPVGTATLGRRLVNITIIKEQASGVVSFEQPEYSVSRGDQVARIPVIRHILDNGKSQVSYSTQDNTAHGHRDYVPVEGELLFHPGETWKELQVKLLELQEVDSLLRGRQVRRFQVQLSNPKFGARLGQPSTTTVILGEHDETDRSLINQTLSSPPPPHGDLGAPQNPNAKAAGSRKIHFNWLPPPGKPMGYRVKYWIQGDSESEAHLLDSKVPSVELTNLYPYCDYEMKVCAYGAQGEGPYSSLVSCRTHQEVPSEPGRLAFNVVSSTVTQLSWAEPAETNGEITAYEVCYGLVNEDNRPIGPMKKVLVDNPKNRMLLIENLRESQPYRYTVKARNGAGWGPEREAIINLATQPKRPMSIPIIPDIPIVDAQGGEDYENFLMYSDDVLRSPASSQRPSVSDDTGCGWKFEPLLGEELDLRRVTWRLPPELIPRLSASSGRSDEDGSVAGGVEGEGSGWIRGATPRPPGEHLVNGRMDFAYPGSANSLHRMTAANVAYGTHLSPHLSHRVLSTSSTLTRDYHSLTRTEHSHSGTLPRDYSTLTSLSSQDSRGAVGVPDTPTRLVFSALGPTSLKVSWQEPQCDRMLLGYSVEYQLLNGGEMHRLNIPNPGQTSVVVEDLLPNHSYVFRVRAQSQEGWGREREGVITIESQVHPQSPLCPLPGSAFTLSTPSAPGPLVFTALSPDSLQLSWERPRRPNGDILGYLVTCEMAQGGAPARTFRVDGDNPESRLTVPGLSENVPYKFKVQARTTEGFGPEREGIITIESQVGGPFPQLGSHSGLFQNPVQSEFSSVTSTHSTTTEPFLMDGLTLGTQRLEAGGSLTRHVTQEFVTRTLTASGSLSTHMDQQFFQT

ezrin in NIH3T3 cells = ezrin in NIH3T3 cells (UniProt P26040 1-586); test: co-immunoprecipitation (IP ICAM-2, immunoblot ezrin) from transduced NIH3T3 cells
Sequence of ezrin in NIH3T3 cells (P26040 whole entry): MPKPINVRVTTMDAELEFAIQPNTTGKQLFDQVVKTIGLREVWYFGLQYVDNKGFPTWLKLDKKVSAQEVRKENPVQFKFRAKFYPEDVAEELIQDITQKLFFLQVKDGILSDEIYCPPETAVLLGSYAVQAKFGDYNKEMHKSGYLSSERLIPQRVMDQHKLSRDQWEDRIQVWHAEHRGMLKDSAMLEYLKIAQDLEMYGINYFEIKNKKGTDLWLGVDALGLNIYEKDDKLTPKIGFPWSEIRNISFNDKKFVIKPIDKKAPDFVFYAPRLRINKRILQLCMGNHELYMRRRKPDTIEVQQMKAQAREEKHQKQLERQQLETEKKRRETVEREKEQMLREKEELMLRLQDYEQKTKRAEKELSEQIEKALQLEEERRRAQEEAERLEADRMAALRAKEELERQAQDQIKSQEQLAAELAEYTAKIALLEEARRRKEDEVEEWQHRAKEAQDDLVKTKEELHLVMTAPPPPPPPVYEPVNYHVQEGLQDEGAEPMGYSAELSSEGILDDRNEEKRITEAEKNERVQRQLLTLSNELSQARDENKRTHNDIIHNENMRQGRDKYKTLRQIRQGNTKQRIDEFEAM
From the text: Control lysates were not subjected to immunoprecipitation and reflect positive controls for detected interacting protein. […] Phosphotransfer of ATP to peptide substrate was detected by scintillation counting and presented as counts per minute CPM.

phospho-AKT Ser473 monoclonal antibody 4E2
percent of gated cells (number printed below the gate) [1]: 43.9

phospho-p38 MAP kinase (Thr180/Tyr182) monoclonal antibody 28B10
percent of cells in the drawn gate (number printed beside the gate) [2]: 13.3

B1: soluble human ICAM-2 protein, biochemically purified from retrovirally transduced NIH3T3 cells (ligand, UniProt P13598 25-275, looked up)
chain: KVFEVHVRPKKLAVEPKGSLEVNCSTTCNQPEVGGLETSLDKILLDEQAQWKHYLVSNISHDTVLQCHFTCSGKQESMNSNVSVYQPPRQVILTLQPTLVAVGKSFTIECRVPTVEPLDSLTLFLFRGNETLHYETFGKAAPAPQEATATFNSTADREDGHRNFSCLAVLDLMSRGGNIFHKHSAPKMLEIYEPVSDSQMVIIVTVVSVLLSLFVTSVLLCFIFGQHLRQQRMGTYGVRAAWRRLPQAFRP
modifications: FITC (NHS-fluorescein) conjugate where used as ICAM-2-FITC, sites not stated
notes: mature; also called sICAM-2; soluble ICAM-2
Kd [3]: 217 nM
stimulus needed for similar expression of CD69 and CD25 on naive CD4+ T cells, 6 hr [4]: 10000 fold
binding result [5]: no binding

B2: human ICAM-2, full length, in cells (receptor, UniProt P13598 25-275, looked up)
chain: KVFEVHVRPKKLAVEPKGSLEVNCSTTCNQPEVGGLETSLDKILLDEQAQWKHYLVSNISHDTVLQCHFTCSGKQESMNSNVSVYQPPRQVILTLQPTLVAVGKSFTIECRVPTVEPLDSLTLFLFRGNETLHYETFGKAAPAPQEATATFNSTADREDGHRNFSCLAVLDLMSRGGNIFHKHSAPKMLEIYEPVSDSQMVIIVTVVSVLLSLFVTSVLLCFIFGQHLRQQRMGTYGVRAAWRRLPQAFRP
notes: whole, on cells; Used in co-immunoprecipitations from cell lysates, FACS staining and cell mixing assays; also called ICAM-2 cells; CD102
binding result (ezrin in NIH3T3 cells): binds
